PMC4176481, “Influence of D-glutamine and D-glutamic acid sequences in optical peptide probes targeted against the cholecystokinin-2/gastrin-receptor on binding affinity, specificity and pharmacokinetic properties” (EJNMMI Research, 2013)

Key:
CCK2R (A431/CCK2R cells) = molecular target: T1, CCK2R (A431/CCK2R cells) (Homo sapiens, UniProt P32239); parameters: method as in PMID 23591397; conditions: earlier probe with a spacer of six uncharged D-glutamines; read-out: dissociation constant Kd; cited from earlier work
T1 construct: expressed in transfected cells; host or cells: A431 human epidermoid carcinoma cells, stably transfected (gift from Dr. Luigi Aloj)
T1 sequence (P32239 1-447): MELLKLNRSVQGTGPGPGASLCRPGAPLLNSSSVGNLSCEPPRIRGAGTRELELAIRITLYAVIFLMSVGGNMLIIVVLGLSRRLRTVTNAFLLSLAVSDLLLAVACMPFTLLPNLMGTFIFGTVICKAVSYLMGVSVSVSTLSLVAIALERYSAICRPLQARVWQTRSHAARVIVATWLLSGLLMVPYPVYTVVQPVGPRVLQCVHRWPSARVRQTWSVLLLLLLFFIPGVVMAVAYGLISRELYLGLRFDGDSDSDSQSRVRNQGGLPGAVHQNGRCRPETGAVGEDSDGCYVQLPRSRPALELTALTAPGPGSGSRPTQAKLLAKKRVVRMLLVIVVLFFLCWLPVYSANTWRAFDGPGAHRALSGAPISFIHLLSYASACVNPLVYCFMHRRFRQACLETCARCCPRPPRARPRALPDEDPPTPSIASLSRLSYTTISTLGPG

[1] = molecular target: T2, cholecystokinin-2/gastrin receptor (CCK2R) (Homo sapiens, UniProt P32239); experiment: competition with QE probe on cells, NIR fluorescence
T2 chain: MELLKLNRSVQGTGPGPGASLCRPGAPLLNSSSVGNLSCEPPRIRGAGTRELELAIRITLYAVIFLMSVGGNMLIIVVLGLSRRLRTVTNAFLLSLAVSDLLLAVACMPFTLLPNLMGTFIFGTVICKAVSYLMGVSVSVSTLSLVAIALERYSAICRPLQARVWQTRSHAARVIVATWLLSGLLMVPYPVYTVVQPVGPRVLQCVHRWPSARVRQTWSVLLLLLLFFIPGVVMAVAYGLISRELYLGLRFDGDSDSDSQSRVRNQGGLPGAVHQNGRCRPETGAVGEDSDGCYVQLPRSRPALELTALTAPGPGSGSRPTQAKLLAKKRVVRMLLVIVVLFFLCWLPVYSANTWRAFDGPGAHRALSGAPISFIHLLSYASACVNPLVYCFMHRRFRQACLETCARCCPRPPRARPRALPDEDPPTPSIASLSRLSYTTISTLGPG

[2] = molecular target: T2, cholecystokinin-2/gastrin receptor …; experiment: competition with bivQ probe on cells, NIR fluorescence
[3] = molecular target: T2, cholecystokinin-2/gastrin receptor …; experiment: saturation binding on A431/CCK2R cells, NIR fluorescence

In the case of “dQ-MG-754: previously published optical minigastrin probe with a spacer of six uncharged D-glutamines and DY-754 (ref 20) (QQQQQQAYGWMDF; not fully specified; Synthetic minigastrin analogue; Residues 1-6 are D-Gln (the text states a spacer of six D-glutamines))”, the Kd (CCK2R (A431/CCK2R cells)) is given as 0.0018 ± 0.0006 µM.

B1: HG-13 minigastrin (peptide)
chain: LEEEEEAYGWMDF
Work on B1 yielded an IC50 [1] of 0.0167 µM and an IC50 [2] of 0.0166 µM.

B2: QE minigastrin probe (peptide)
chain: {DY‑754}-AYGWMDF-NH2
modifications: also: N-terminal spacer of three alternating D-Gln and three D-Glu, order not given here, M5: Met or Nle
Molecule B2 has a Kd [3] of 0.0058 µM.
